Protein production data for 19 sequences are collected here from a protein production outcome set (Wang et al. 2014).
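Further: failed if final PepcDB status was selected cloned or expressed and not failed if soluble or beyond.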

A short description of this series: label from the status in PepcDB records.
On to “MTEIKYKVITKDAFALPYTIIKAKNQPTKGVIVYIHGGGLMFGKANDLSPQYIDILTEHYDLIQLSYRLLPEVSLDCIIEDVYASFDAIQSQYSNCPIFTFGRSSGAYLSLLIARDRDIDGVIDFYGYSRINTEPFKTTNSYYAKIAQSINETMIAQLTSPTPVVQDQIAQRFLIYVYARGTGKWINMINIADYTDSKYNIAPDELKTLPPVFIAHCNGDYDVPVEESEHIMNHVPHSTFERVNKNEHDFDRRPNDEAITIYRKVVDFLNAITMV”, for which the protein production result was “not failed”.
Take “MTEINLLQPMHASTKRDYVQRVVEHDKAESAAVARQWGRDYWDGDRRYGYGGYRYDGRWRPLAQTLIDRYGIKPGMSVLDVGCGKGYLLYEFTQLVPDLTIAGIDVSEYGIANAKEDVRPQLRVGSAVELPYPDHSFDLVVSLGVLHNLPLEDVFRAVSEIERVGRGASKYLMVESFRNEREKANLLYWQLTCLSFHGPDTWAWIYDKCGYRGDHGFIFFE”: the protein production result was “failed”.
In the case of “MTEKHLIWDLPLRIFHWGFAATILAAWYTAEQGADLVEIHMQLGFVALALIAFRILWGLIGPKHARFSQFVPSPKSLLSYLRSPNTAKSTAGHNPLGALMVILMILLISAQAISGLFINDDVFSSGPYYGRISNELEKVMKFLHHNTFDFMIAAIVLHIAAITFYWRVKKENLVLPMITGKKTTAQVKSSDAIPHSKIILGCIVAVCCVIFVYWLVVVNAPVIEEFYY”, the protein production entry was “failed”.
Regarding “MTELVTFGETMLRLSPPGDERLETADQYAVRAAGAESNVAVAAQRLGVDAMWASKLPDSPVGRRVTGELKHHGVSVDVAWDDSDSARQGTYYLEQGSPPRGNDVIYDRQNASVTTATPAELPTEAIADAAGFHTSGITPALSETLESTTADLLSLAQDAGTTTSFDLNYRSKLWTPAEARSVLTELFPSVDLLVVAERDANVVLDRTGDAETIARDLAAEYGFEATVITRGSDGALALADGTVTEQPTFESTDAHPVGTGDSFVGGFLSQYLSGGTVADGLAWGAATAALKRTIPGDIAVVSPDEIRSILSGDTEAISR”, the protein production result is “failed”.
In the case of “MTENEFLSQEEIDKLLSDSDTGGVLTPEEKDMIGEIGNIAMGSAATTLSMILGRDIHITVPTVREEKMKNVKSDFSGEQVVVSVEYTEGLEGLNVLVLDKKLVAVIADLMMGGSGEVETEELDEIKLSAVGEAMNQMMGSAATSLSELLGITINISPPKVEI”, the protein production result is “not failed”.
“MTENVVCTGAVNAVKEVWEKRIKKLNEDLKREKEFQHKLVRIWEERVSLTKLREKVTREDGRVILKIEKEEWKTLPSSLLKLNQLQEWQLHRTGLLKIPEFIGRFQNLIVLDLSRNTISEIPPGIGLLTRLQELILSYNKIKTVPKELSNCASLEKLELAVNRDICDLPQELSNLLKLTHLDLSMNDFTTIPLAVLNMPALEWLDMGSNKLEQLPDTIERMQNLHTLWLQRNEITCLPQTISNMKNLGTLVLSNNKLQDIPVCMEEMANLRFVNFRDNPLKLKVSLPPSEGTDEEEERELFGLQFMHTYIQESRRRADHQVNGSTTLPISINTDG”: the protein production entry is reported as “not failed”.
For “MTEPANNHPSPPPQNWLFKWWNSLNAITRLLVLVLGAPLMVLNARALSSIFGYFESLFVISLIASVIAFLLNYPVAWLEKQGAKRFVAASFVFLTALIIFTALGVTLIPLALSQAQQLVARLPDWLDSGQKQLVLLDQKAEILGWPVNFDGLIPQINSRLAAELQNLAGSTLNLALSLTVFTVVRLLDVLLTIILTFYLLLHTDDVWQSIIGWLPERFQKPFSDTLRRSFQNYFLGQLVSATCMALGLISGFLLLKVPFGLLFGLTVGVMALIPFGGSVGIVLVTFLVALRDIGMALQLLAVALVIQQIVENGIAPRVLGSVTGLNPFWVLISLLTGARIGGLLGVIVAVPSAVMIKEALGAIRSMKPLVPAPDHNQDPLYFKNQEEVQPLPPRP”, the protein production result is “failed”.
As to “MTEQAQYRDPRLVILYDRLNRWGADDDFFLALANETPGCRLLDLGCGTGRLTTALARAGHQVTGLEPARASLEVAQRKPGAEAVCWLQGSAQDAPTAAFDLCLMTAHVAQVFVEDDAWQDVLQHIHRALVPGGRLSFDMRDPAARAWDTWDSAGKRERLTLLDGSEAETWCDVLDVAGPIVSGPVVHFAEHTRFLPGQDVLTSTSRLRFRREDELRASLQAAGFAVEQVYGGWHGEPVGTGCGELVVVARRPG”, the protein production entry was “failed”.
For the sequence “MTESFTRRERLRLRRDFLLIFKEGKSLQNEYFVVLFRKNGLDYSRLGIVVKRKFGKATRRNKLKRWVREIFRRNKGVIPKGFDIVVIPRKKLSEEFERVDFWTVREKLLNLLKRIEG”, the protein production result is recorded as “not failed”.
In the case of “MTESNFDLPIISVIIPAYNCEKTIKKTIDSVLDQSFTDFELIVINDGSQDATLDIVSQIEDSRIKIFSFENAGGNVSRNRGLNLAVGKFISFLDADDIWTPNKLESQLEALHNNPGFHVAYSWTDYIDEDGNFLISGRRVTLNGDVYKKLFINNFLENGSNPLICKEALIALGGFDESLKAAQDWDMWLRLANKYSFVAVPYVQILYRVSSNSLSSNLVRQEKACKQVLEKAYQARPAIGNHILHLSIANLYKYLACKALQKPYSRSKGLAAVKFIWQYFLYDSSRMRRINSTLKLLFKALIIIILPAGLSTELLAKMRTKSLNPQLSAISGS”, the protein production result is on record as “failed”.
With “MTETNESSGVNLKKDVKFSIIIPAHNEEKYIRKCLDSIAKASEAYKEQTEVIVVLNRCTDKTEEIAKSYNCVTLKNNDKNLSKIRNAGAKIANGEIIVTIDADTIMTESMLSNVDKYLASGKYIGGGVNGKFERISLGIFLSAMLIIIPLLFKYGAISVGIFWCYRKDFMAINGFNENMLMAEDADFAKRLKEWGKKNNKKFGTIKNGMITSCRRFDTYGDWTLLKNPKVILAYLKGNDRKYADKTYYDNQER” the entry was “failed”; with “MTETYVLAESPEFYQDNVTDYTGQISSSDITNIQAAIDDVKASEQKVIFVVFLSSFDGVDPETWTQQALQANGGGNVLIYALAPEERQYGIQGGTQWTDAELDAANNAAFQALSQEDWAGSALEHHHHHH”, “not failed”; with “MTEYVHGYSEREALRLSEQAETLEKLLHHDTVYPPGAKVLEAGCGIGAQTVILAKNNPDAEITSIDISPESLEKARENTEKNGIKNVKFLQANIFSLPFEDSSFDHIFVCFVLEHLQSPEEALKSLKKVLKPGGTITVIEGDHGSCYFHPEGKKAIEAWNCLIRVQAYMKGNSLVGRQIYPLLQESGFEKIRVEPRMVYIDSSKPELVDGFILKTIIPMVEGVKEQSLKMQIIKEEEWEKGIEELHKTAEHGGTFCYTFFKGWGTK”, “failed”.
The same measure for “MTFLDKIKQGCLDGWAKYKILPSLTAAQTILESGWGKHAPHNALFGIKADSSWTGKSFDTKTQEEYQAGVVTDIVDRFRAYDSWTDSIIDHGKFLNDNPRYQAVIGETDYKKACHAIKDAGYATASGYAELLIQLIEENDLQEWDEEAIVRKEKQMISSQCREVIEFFINLVNAGVGVDKDGFAGWQCTDVPCYAAKHWFGVDLWGNAIDLLDSAAAVGWEVHRMPTDANPQTGAFFVQSVPYHQFGHTGVVIEDSDGYTMRTIEQNIDGNPDALYVGAPARFNTRDFTGVTGWFYPPYQGDIVTQPVSTEPQTSDTIVETAKTGTFTLDVAEINIRRWPSLTSEVVGSYKQGDTISFDSEGYANGYYWISYVGGSGMRNYTAIGITDKDGNIISLWGKLNLEHHHHHH”: “not failed”; for “MTFTSNLPSSSEQSISPPASSFSSSTDTLKDIDIPHNGADLSTYSKFLALYCRSDKCDDFYSLEEKQNCKFGDQWLDFINTIHNLDFSESEVSGRVSERILPASLANKFTNNLGVAIKISEYTRDDERQIRGCVTTVENENSFNNWFVYHILDQSQLSLSEHPIVTKEVKYHELFADFFEKNLKNTIVNDQWNFGGRDYFIERSRYFTDRYLRIECILPAFPCKSSNEQKVYGSVPDKGEELALKRLIKATQDLVKIYPPGMKIWIVSDGHVFSDCIGVDDDVVSTYTTKLHELYKRVAIPGVDAIGFCGLNDLFFSGAASKVFDPKWVSDVEVAHYTGTQICPKSDLSRQILMKGCDTDAGRLRKQIAIEGHPRLHLYRGFSRFMMEDLSLLEHFQSYSRKKFKKIISMIAFNMIKRNDAYSNLVELIFPHHLRISIHAHTNSGPKFGIKVISNEQCSIVSSLEDLDEPKFEDFLHIPTPWHNCVVKVEDEKEKYFLTKSKVVKEALEKGMYDGVWKDTRFDIGEGGHFVIKKIS”: “failed”.
With “MTGEEITAAIHQVLTERMNNRHLDGFGPQSRLNADLYLDSVLMLDLLLHLELDHGITAPEEAIATAAIQTVSDLVELLAGASPATSGASDTAVADGPDVHADVYPDIKVHCVVSCLCDAVKAAGLDHRPMYFGIWDADFAVSDKFELRYHTDHISHGFFCHWFHRLYGVRVTEWYDHSAGKQSNLARLIGLVDARRPTESVMVMLDMFHLPERENKFNQYPFPHYLMVEATPDPETWQVRDPDFRWEGPIAKERILNAVAQPSVGGGYIFDRCTMRLPAAVDIGDYFLACFVSDDNPLIRRLREIVDTHLGCRDGLRLQALGDAVRELPVLSIRKWAYEHGFAFFWRELRLPNDAFLTWCDRIEELALGLPALHLKILRLAQTEDRTCAADIHQTLDRLDALETAIKVKLHEVFVAWCSHQGLTRATPRERRVGAR” the entry was “failed”; with “MTGIFLQAFVYLVAAVIAVPLAKRLGLGSVLGYLIAGVVIGPIIGLVGEETTTIQHFAEFGVVMMLFLVGLELEPKMLWAMRNRLMGLGGLQVGGTVAAIMGIALYFEQPWTIALAIGLIFALSSTAIVLQTFSEKGLTKTEGGKNAFSVLLFQDIAVIPMLAFIPLLALPELVEQAQNAVQTAAQHHDDLNLVADLPGWAYGIVITASIAIVVVGGHFLSRPLLKYVASSGLREIFTATALMLVIGIAALMSLVGLSPALGTFLAGVVLANSEFRHELESNIEPFKGLLLGLFFITVGAGINFSVLFGDFWLIMALTIGVMVLKALVLFILALIFRVKGSNRWLFTLSLAQAGEFGFVLLSFSVQNHVIPFELSQTLALVVAISMFLTPGLFILFDRVILPRFETQSNERESDTIEETGTVIIAGIGRFGQIVNRLLVSNGVTTVVLDHQANQVDNMRQIGTRAYFGDATRPDMLHTAGIEHAAALVVAIDNQESSVELVKYVKHTYPKVKIIARAFDRGHGYLLRQAGADVIESETYHSALEMGGHAMKALGIHPFFVEQQKDTYKRVEARKSEMLYQAWEDDSEGERFDNNFRELFIQLEEKMAEEMRKDRHDKLSRSERGWTPPPKGYAENFDGENVQDITPPKEEAI”, “failed”; with “MTGKEEISSKYDDYSLKEVPKDSRYGFFNVFLVFSSVYGAIAVIWAGGALGYGLTFSQAIIAVLSGTVVLGILGSLTAAVGAYSGLSTYVMWRHPLGRWGGKIAGLLLITITTGIGWYAVETWLFGIVMSEIFPNNPFFSVGVAAIWGGILMTIMTYVGYRMLSFLSYFTIPFHIWLIAIGIAIVLALKGGFHTVMAAVPTSHMSLLDGISATIGLYSAGTIISPDISRFAKSAKDAGYAWFAHIIFLYPFLILGGVAIVLATGSYLITNAMLELGMGVGVLLIIVFGQFIINTDNLYSGSLSLVNLIPMRREIASVINGVIGTAIAAYVGFSAGSSITPFENFISLLGDFLPAMGGIVLADFYIVKKYVNKIQDPHKRYEFVPNNKYYNINIAGILALALGSIIGYFVNAGIPAINSLVTGFLSYIIIYYIIKAMGKSPEILPFNYEGGILR”, “failed”.
Turning to “MTGKKRSASSSRWLQEHFSDKYVQQAQKKGLRSRAWFKLDEIQQSDKLFKPGMTVVDLGAAPGGWSQYVVTQIGGKGRIIACDLLPMDPIVGVDFLQGDFRDELVMKALLERVGDSKVQVVMSDMAPNMSGTPAVDIPRAMYLVELALEMCRDVLAPGGSFVVKVFQGEGFDEYLREIRSLFTKVKVRKPDSSRARSREVYIVATGRKP”, the protein production entry is on record as “not failed”.
